Patent US20240000837A1

Target: HLA-C1 expressed in the tumor cell membrane (HLA class I on Panc0203 / HPAC tumor cells) (human)
Experiment: flow cytometry on Panc02.03 cells, PE-conjugated anti-Fc secondary staining

- percent of cells bound: > 60%
Substance: fusion protein encompassing the extracellular domain of KIR2DL2 linked to the Fc portion of an antibody (KIR2DL2-Fc) (from UniProt P43627 22-245) (Fc fusion)
